The labels stand for the following.
B1: Protein PTHB1 (Homo sapiens), Q3SYG4 (parent)
chain: MSLFKARDWWSTILGDKEEFDQGCLCLANVDNSGNGQDKIIVGSFMGYLRIFSPHPAKTGDGAQAEDLLLEVDLRDPVLQVEVGKFVSGTEMLHLAVLHSRKLCVYSVSGTLGNVEHGNQCQMKLMYEHNLQRTACNMTYGSFGGVKGRDLICIQSMDGMLMVFEQESYAFGRFLPGFLLPGPLAYSSRTDSFLTVSSCQQVESYKYQVLAFATDADKRQETEQQKLGSGKRLVVDWTLNIGEQALDICIVSFNQSASSVFVLGERNFFCLKDNGQIRFMKKLDWSPSCFLPYCSVSEGTINTLIGNHNNMLHIYQDVTLKWATQLPHIPVAVRVGCLHDLKGVIVTLSDDGHLQCSYLGTDPSLFQAPNVQSRELNYDELDVEMKELQKIIKDVNKSQGVWPMTEREDDLNVSVVVSPNFDSVSQATDVEVGTDLVPSVTVKVTLQNRVILQKAKLSVYVQPPLELTCDQFTFEFMTPDLTRTVSFSVYLKRSYTPSELEGNAVVSYSRPTDRNPDGIPRVIQCKFRLPLKLICLPGQPSKTASHKITIDTNKSPVSLLSLFPGFASQSDDDQVNVMGFHFLGGARITVLASKTSQRYRIQSEQFEDLWLITNELILRLQEYFEKQGVKDFACSFSGSIPLQEYFELIDHHFELRINGEKLEELLSERAVQFRAIQRRLLARFKDKTPAPLQHLDTLLDGTYKQVIALADAVEENQGNLFQSFTRLKSATHLVILLIALWQKLSADQVAILEAAFLPLQEDTQELGWEETVDAAISHLLKTCLSKSSKEQALNLNSQLNIPKDTSQLKKHITLLCDRLSKGGRLCLSTDAAAPQTMVMPGGCTTIPESDLEERSVEQDSTELFTNHRHLTAETPRPEVSPLQGVSE
partner: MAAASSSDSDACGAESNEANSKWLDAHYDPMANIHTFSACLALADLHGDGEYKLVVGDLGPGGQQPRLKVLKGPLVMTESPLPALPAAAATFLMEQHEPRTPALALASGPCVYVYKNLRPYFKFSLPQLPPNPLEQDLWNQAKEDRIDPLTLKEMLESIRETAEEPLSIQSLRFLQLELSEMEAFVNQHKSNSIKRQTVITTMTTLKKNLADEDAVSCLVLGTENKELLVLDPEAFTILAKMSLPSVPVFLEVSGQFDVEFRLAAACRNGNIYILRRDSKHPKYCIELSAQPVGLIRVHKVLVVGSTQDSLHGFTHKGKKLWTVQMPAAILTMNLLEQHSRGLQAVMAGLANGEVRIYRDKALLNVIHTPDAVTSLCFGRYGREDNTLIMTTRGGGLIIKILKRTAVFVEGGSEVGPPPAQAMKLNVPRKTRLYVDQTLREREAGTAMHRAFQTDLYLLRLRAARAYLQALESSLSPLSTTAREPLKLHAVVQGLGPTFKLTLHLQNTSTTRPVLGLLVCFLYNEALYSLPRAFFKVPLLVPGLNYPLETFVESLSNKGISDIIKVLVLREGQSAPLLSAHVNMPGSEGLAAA

In this experiment the parent is B1. Conditions: with bbs1_human BBS1, Q8NFJ9.
As for V440K, the “effect of a mutation on the interaction” value is “with no effect”. The value for L446K was “with no effect”; that for N719E was “with no effect”; that for I846E was “with no effect”. Consider I846K, for which the “effect of a mutation on the interaction” value is given as “with no effect”. The value for E857A was “with no effect”; that for T782K was “with no effect”; that for L695A was “with no effect”. Take L695K: the “effect of a mutation on the interaction” value is on record as “with no effect”. In the case of R674K, the “effect of a mutation on the interaction” value is “with no effect”. The value for Q605K was “with no effect”; that for L680K was “with no effect”; that for Y645K was “with no effect”. The value for Q462T was “disrupting interaction strength”; that for Q462E was “with no effect”. The value for L698K was “with no effect”. For the variant F582K, the “effect of a mutation on the interaction” value is “with no effect”. The value for I519A was “with no effect”; that for Y460A was “with no effect”. The value for F563K was “with no effect”; that for T813E was “with no effect”; that for A675E was “with no effect”. On to S486E, for which the “effect of a mutation on the interaction” value was “with no effect”. For S880A, the “effect of a mutation on the interaction” value is given as “with no effect”.

Turning to K456A, the “effect of a mutation on the interaction” value is “with no effect”. For S593K, the “effect of a mutation on the interaction” value is given as “with no effect”. The value for S593E was “with no effect”; that for G433A was “with no effect”; that for E714A was “with no effect”. On to P802K, for which the “effect of a mutation on the interaction” value was “with no effect”. As to L559K, the “effect of a mutation on the interaction” value is listed as “with no effect”. The value for T829E was “with no effect”; that for S886A was “with no effect”; that for Q858E was “with no effect”. The value for I523A was “with no effect”; that for L562E was “with no effect”. The value for T405E was “with no effect”. As for A567E, the “effect of a mutation on the interaction” value is recorded as “with no effect”. The value for I812A was “with no effect”; that for S828K was “with no effect”; that for S425E was “with no effect”. For C783A, the “effect of a mutation on the interaction” value is “with no effect”. R619K: the “effect of a mutation on the interaction” value is reported as “with no effect”.

With W610A, the “effect of a mutation on the interaction” value was “with no effect”. The value for C525K was “with no effect”; that for L819K was “disrupting interaction strength”; that for L531E was “with no effect”. The value for P847K was “with no effect”. The value for V450K was “with no effect”; that for T468E was “with no effect”; that for T468K was “with no effect”. V838E: the “effect of a mutation on the interaction” value is given as “with no effect”. Turning to V415A, the “effect of a mutation on the interaction” value is “with no effect”. For the variant H651T, the “effect of a mutation on the interaction” value is listed as “disrupting interaction strength”.

Take P464E: the “effect of a mutation on the interaction” value was “with no effect”. For P464K, the “effect of a mutation on the interaction” value is recorded as “with no effect”. Take G701R: the “effect of a mutation on the interaction” value is recorded as “disrupting interaction strength”. The value for G701E was “disrupting interaction strength”. The value for A833S was “disrupting interaction strength”; that for L759E was “with no effect”. On to P530A, for which the “effect of a mutation on the interaction” value is reported as “with no effect”. The value for P530E was “with no effect”; that for F864A was “with no effect”; that for A592V was “disrupting interaction strength”. The value for N658A was “with no effect”; that for L814A was “with no effect”; that for V489E was “with no effect”. D747N: the “effect of a mutation on the interaction” value is “disrupting interaction strength”. The value for S777A was “with no effect”; that for S488A was “with no effect”. The value for K526A was “with no effect”. Regarding V772K, the “effect of a mutation on the interaction” value was “with no effect”. The value for V416K was “with no effect”; that for T865A was “with no effect”; that for V713E was “with no effect”. The value for D696E was “with no effect”. The value for V442K was “with no effect”. As for T512A, the “effect of a mutation on the interaction” value was “with no effect”. In the case of Q672E, the “effect of a mutation on the interaction” value is “with no effect”.

Turning to L648E, the “effect of a mutation on the interaction” value is recorded as “with no effect”.

D804F: the “effect of a mutation on the interaction” value is listed as “disrupting interaction strength”. Regarding L583K, the “effect of a mutation on the interaction” value is “with no effect”. On to Q539K, for which the “effect of a mutation on the interaction” value is given as “with no effect”. On to G841A, for which the “effect of a mutation on the interaction” value is listed as “with no effect”. Regarding V885K, the “effect of a mutation on the interaction” value is “with no effect”.

For P516K, the “effect of a mutation on the interaction” value is on record as “with no effect”. As to L740K, the “effect of a mutation on the interaction” value was “with no effect”. The value for C816A was “with no effect”; that for V734A was “with no effect”; that for S635A was “with no effect”. The value for T874K was “with no effect”; that for C469K was “with no effect”.

For the origin of these results see IntAct's records for PubMed 29039417.
